One substance from publication PMC5715097 can be followed below.

In the assay the target is Sulfolobus solfataricus RNA polymerase (S. solfataricus).

As for “Sulfolobus solfataricus TFS4 (from UniProt Q97X43 1-92) (natural protein)”, the transcription elongation assay on a synthetic scaffold: excess of TFS1 over TFS4 needed for 50% relief of the inhibition by TFS4 (fold excess of TFS1 over TFS4) is 2.
